{"source": "paper PMC12797002", "about": "“Hydrophobic residues in the α‐synuclein NAC domain drive seed‐competent fibril formation and are targeted by peptide inhibitors” (The Febs Journal, 2025)", "proteins": {"B1": {"name": "NAC11 (peptide, UniProt P37840 68-78, looked up)", "peptide": "GAVVTGVTAVA", "notes": "alpha-synuclein, residues 68-78 (NAC residues 8-18); also called NACore; αSyn 68–78; source: synthetic peptide (GenScript Biotech, purity ≥ 95%)"}, "B2": {"name": "NAC16 (peptide, UniProt P37840 63-78, looked up)", "peptide": "VTNVGGAVVTGVTAVA", "notes": "alpha-synuclein, residues 63-78 (NAC residues 3-18); also called αSyn 63–78; source: synthetic peptide (GenScript Biotech, purity ≥ 95%)"}}, "key": {"[1]": {"biological_target": "the molecule itself", "assay": "ANS fluorescence aggregation kinetics; 100 μM NAC peptide, 40 μM ANS, 1× PBS at acidic (pH 4.2 in the methods, 4.5 in the legend), neutral (7.2) or basic (8.0) pH, 37 °C, 1000 rpm"}, "[2]": {"biological_target": "the molecule itself", "assay": "co-sedimentation; 100 μM NAC peptide incubated 48 h without ThT, centrifuged at 65 000 g for 1 h; UV–Vis spectra (400–600 nm) of soluble and insoluble fractions"}}, "data": [{"protein": "B1", "values": [{"measurement": "binding result", "setting": "[1]", "value": "binds"}]}, {"protein": "B2", "values": [{"measurement": "binding result", "setting": "[2]", "value": "binds"}]}]}
